Experimental data as given in the DeepSol protein solubility set.

assay: soluble on expression in E. coli; label from the status in PepcDB or PDB records

Which “soluble on expression in E. coli” value does the source give for “MKRSIKHIYLLSDATGETVERVVRAALSQFRDVEARFHRVTRIRSREDVIWALEEVLREPGMVVYTLVDTELAQLLRDEAEAHGLDAIDLISPLLFKLSDFFGEAPQKEPGLLHQINSEYHKRVDAVDFTVKHDDGQDPRGLAKADFILVGVSRSSKTPLSMYLAHKGYKVANVPIVKGIDPPPELYKVDQKRVVGLIIDAERLVQIRTARLRNLGQMPKGSYADYERIEEELEFCRRLYRRNPQWLVIDVTKKSVEESAAEIIQKLAGLEHHHHHH” here?
Its value is “not soluble”.

For “MKRYTPDFPEMMRLCEMNFSQLRRLLPRNDAPGETVSYQVANAQYRLTIVESTRYTTLVTIEQTAPAISYWSLPSMTVRLYHDAMVAEVCSSQQIFRFKARYDYPNKKLHQRDEKHQINQFLADWLRYCLAHGAMAIPVY”, which “soluble on expression in E. coli” value is on record?
Its value is “not soluble”.

With “MKSADLIIIGGGMVGLALAGLLKDSPCQIKIIEKSAPKTQKYYANRVSAINTASEKMLQQLGVFEHIPTDAYTDYQKIIVSEKDSFAKIEFDNNDLAIKQLGLTQLGLIIANSQLQQALWQQVSQQKNVEIILSTPKTIGISESGAFLTLENGEMLAGKLVVGADGAHSWLRNQINIPLISQDYQQTALVCCVETAEPHNNIARQIFGPDSILAFLPLADKNQCSIVWSLPPDQANKLTTCDEQQFNQALTIAFDYQLGLVKLQDSRKIYPLTARYARDFAQMRIALIGDAAHTIHPLAGLGVNLGFADAITLAEQIKLHLAAAHDIGEYRHLRYFERTRKTETIKLLAAMEGLKQLFSGNNPLKKLIRGIGLVGTNHFSAIKKRLIEQVVNILEHHHHHH” as the sequence, how does the “soluble on expression in E. coli” value read?
Its value is “soluble”.

With “MKSEIIAVGTEILTGQIVNTNSQFLSEKFAELGIDVYFQTAVGDNEERLLSVLKIAKERSDLIVLCGGLGPTEDDLTKQTLAKFLKRELVFDKTAQERLDEFFASRPTSMRTPNNECQAQIIAGSQPLSNKTGLAVGGLLEADGVTYVVLPGPPSELKPMVNKELLPYLSKTSEKLYSRVLRFFGIGESHLVTLLHDLIAEQTDPTIAPYAKTGEVTIRLSTKAHRQKEADSKLDKLEKKIITIDNLADYFYGYGEENSLPQVVFDLLKEKGKTITAAESLTAGLFQARLADFAGASDIFKGGFITYSIEEKARMLGIPFEDLQLHGVVSAFTAEKMAERSRQLTQADLAISLTGVAGPDSLEGQPAGTVFIGLSSSKRTMAIKVLIGGRSRSDVRYIAVLHAFNLVRQTLLSHKNLV” as the sequence, how does the “soluble on expression in E. coli” value read?
Its value is “soluble”.

With “MKSFLVAGCTSDAGKSVVVAGLCRALTRRGLRVAPFKAQNMSNNSAVTPDGGEIGRAQALQAYACGLTPSVDFNPILLKPGSDRTSQLVVRGIATGNVSARSYIEHRTELRKIASESLNSLRERFDVVVCEGAGSPAETNLRATDVANFGLAEECDLPVYIVGDIDRGGVLAHFYGTHQIVDDADRARIKGFVVNKFRGDVSILEPGLQDLEDRLGVPTVAVLPFIHGLWIDAEDSLQSTIGATVGPAAAPLGTQRLRVAAIRLPRVSNATDVEALACEPGVTVTWTVDPDSVAEADLVVIPGSKATLSDLAWLRSTGVADAIMERARSQRPILGICGGFQMMCSHIDDPVESGSTTPVEGLGIFDVDIEFHPEKTLIRHENGGYEVHHGRVERSTEQPWIGNEGARTQSNFGTHRHGYLEDDEARRDFLGTVSTLAQRPGFVVAPATSFEAERNKQLDVIADAIEQHWDLDQLIAALT” as the sequence, how does the “soluble on expression in E. coli” value read?
Its value is “not soluble”.

With “MKSFVLFALFSVAAAQFGGYGRGRGGPGGPGGFEGGPAGAGGFQGNGAGELTYEAKGRLICGLTGVDKVRVVLWDRFRGRENIIYDETNTDVVGNFRLRATRNGFDGNLIQPFLTIYHDCDDASTPGLRKMTVQLPPQYTNQGSLALKSFDIGTWNLETSFAGEELEIQNGGLGGRPIGGSSFGQGNRGQFGGNREIFAHGGRSDFGDSSISV” as the sequence, how does the “soluble on expression in E. coli” value read?
Its value is “not soluble”.

For “MKSGVIPSSAVGQKINEWYRYIRTFSVPDAEVLKAEIQQELKHMQHDSNLLLYYSLMEFRHQLMLDYLEPLEKLNIEDQPSLSELSRNIDSNQADLKGLLDYYVNFFRGMYEFDKREFISAITYYKQAEKKLSFVADHIERAEFYFKIAEAYYYMKQTYFSLINIKNAYEIYVEQETYNVRIIQCHFVFGVNLMDERNFEQAARHFKLALNMAQAEQKAQLVGRAYYNLGLCYYNQDLLDPAIDYFEKAVSTFESSRIVNSLPQAYFLITLIYYKQGKHDKASEYHKRGYEYAKETDDADYAVKFEFLQSLYLDQPNEEGIERCFQYLKNKNMYADIEDLALEVAKYYYEQKWFKLSASYFLQVEEARKQIQRSEGLYEIEI”, which “soluble on expression in E. coli” value is on record?
The value was “soluble”.

For “MKSKYEPLFDKVELPNGVELRNRFVLAPLTHISSNDDGTISDVELPYIEKRSQDVGITINAASNVSDVGKAFPGQPSIAHDSNIEGLKRLATAMKKNGAKALVQIHHGGAQALPELTPDGDVVAPSPISLKSFGQKQEHSAREMTNEEIEQAIKDFGEATRRAIEAGFDGVEIHGANHYLIHQFVSPYYNRRNDVWANQYKFPVAVIEEVLKAKEAYGNKDFIVGYRLSPEEAESPGITMEITEELVNKISHMPIDYIHVSMMDTHATTREGKYAGQERLPLIHKWINGRMPLIGIGSIFTADEALDAVENVGVDLVAIGRELLLDYQFVEKIKDGREDEIINYFDPEREDNHHLTPNLWHQFNEGFYPLPRKDK”, which “soluble on expression in E. coli” value is on record?
Its value is “not soluble”.

For “MKSLSALEAEQWITIRSIFLIDLPFRSFSFSLPAEEKQDLQCNLQNLVNHNFSFLQVIHLQVSHINDADVLTGLNGRIGSFLLPSIATGTGTATGTAATTGASAITASSRSRRILGDEFEDHVIVPATCGSRAVVGKPQRIIDLETKVDTSNIPHRTVLFLFHTGTSKRGIENPQAVNLHLIPCYEHLLHRADKGLHHMLHIFHRKRTDRLDLTRQRLDRIKFRFPRLGFEHIHHRRFVITNLFFALIAHHRHCCHTEFVLKKRRTFSLSVGETKIRQCTGNFPDYDGLCRTMTG”, which “soluble on expression in E. coli” value is on record?
Its value is “not soluble”.

For “MKSYTKHTHTNRLASESSPYLLQHAHNPVEWFPWGEEALQKAKAEDKPILVSIGYSACHWCHVMEHECFEKEEVAAVMNDLFINIKIDREERPDLDQIYMDAVSAMGLRGGWPLNVFLTPDAKPFYGGTYFPQDHWLNLLGQISNAYLNHREDILKSAESFTESLNQSDVF”, which “soluble on expression in E. coli” value is on record?
The value was “not soluble”.

For “MKTIYIYKGSIPEDKKKGDNAIWVTEKKIIDALEKAANSNGESTQSNPKTIALQAAKKETKKSNKKESKTIGYTTTGYVNADGKHIFDTDRINNERFDRKIIIGATLETLDQSSTLQSGEAIVLPAPGKYKSSDQKTVMTAQGPKIIGIHANAKENEETQKFVNWF”, which “soluble on expression in E. coli” value is on record?
The value was “soluble”.

With “MKTLIKNGKIIKKENQLIEAALWLENGVIHAIGESFDEADFEQVFDANGQLITPGLVDVHVHFREPGFTYKETIKTGSKAAARGGFTTVCAMPNLNPVPDTAEKLSEVYDLIQKDAVVKVLQYAPITEELRSEVLTNQKALKEAGAFAFTNDGVGVQTAGTMYLAMKEAAALNMALVAHTEDESLLFGGVMHEGEVSKKLGLPGILSATEASQIARDITLAKETGVHYHVCHVSTEESVRVIRDAKKAGIHVTAEVSPHHLILVDEDIPGDEGFWKMNPPLRGLADRQALIDGLLDGTIDCIATDHAPHGLEEKQQSFLNAPFGIVGSETAFQLIYTNFVETGIFTLEQVIDWMAVKPAEIFGLNAGTLTIGAPADIAVFDLATAAPIDAEAFESMAVNTPFTGWTVKGKTLMTFVDGALAWSEEAQ” as the sequence, how does the “soluble on expression in E. coli” value read?
Its value is “not soluble”.

With “MKTMSEEDSRTASRYAMIREVLRNAIVSGAAAKGLVLLEAPLGELFGTSRVPVRKALNLLHEEGLISRFDGRGYLVNPERQHVEPLRLSLSHKQFGLDSNEELVDTRPLGERIHDEIGAALSACIAFGHYRLDEQSAAQHYGVSRSVVREALMRLRDRGLVEKEPYSQWLAGPLTAREITEDYELRACLEPEALRLTAPQLSRETLEAMLTRVVEAQNAEQCSLEDIERLEEDLHQQCLAGLQNRKIATLISQAQSPMIINRIFYRLLDIGADEAMLAEHRLIIELLLHGAFDAAALNLKEHLQRARQRMLQRLKVLSVLPEQEVPGYLTRLS” as the sequence, how does the “soluble on expression in E. coli” value read?
Its value is “not soluble”.

For “MKTNPAVDSARLGLLLNELRLPAIKVMWPQFAERADKEGWPAARFLAAIIEHELAERDRRRIERHLAEARLLPGKTLDTFEFEAVPMISKAQVMAITAGDSWLEKGANLLLFGPPGGGKSHLASAIGLALIETGWRVMFTRTTDLVQKLQVARRELGLEAAINRLDRFHLLILDDLAYVTKDQAETSVLFELISARYERRSLLITANQPFGEWGKVFPDPSNARYPCCAAALEHHHHHH”, which “soluble on expression in E. coli” value is on record?
Its value is “not soluble”.
